We go through three molecules from paper PMC4963090 (PLoS ONE, 2016).

Assay [1] has as its target head-only RSV F immunogen i-273 (respiratory syncytial virus subtype A, strain A2) (UniProt P03420). Nature of the assay: negative-stain electron microscopy; immunogens alone or mixed with D25 and/or motavizumab Fabs; 20 mM HEPES pH 7.0, 150 mM NaCl; uranyl formate; reference-free 2D class averages.
Assay [2] shares this target. Nature of the assay: BLI; head-only variants (50 ug/ml) held on anti-His-tag (HIS1K) tips; Fabs in solution 0.016-0.5 uM; 30°C, PBS + 1% BSA; global 1:1 fit.
The target in assay [3] is head-only RSV F immunogen i-210 (respiratory syncytial virus subtype A, strain A2 | bacteriophage T4) (UniProt P03420). The assay is described as above.
Assay [4] concerns the target T1, head-only RSV F immunogen i-447 (Human respiratory syncytial virus A, …, S190F | S155C | S290C).
T1 construct: RSV fusion (F) glycoprotein, subtype A strain A2, F1 segment of domain III (head); numbers count on: PDB entry 4JHW; linker; RSV fusion (F) glycoprotein, subtype A strain A2, F2 segment of domain III (head); MTQ-F1-GGPG-F2; A signal peptide for secretion was added; Tags are thrombin-cleavable: held by the His-tag or Strep-tag in BLI; said to be cleaved before SEC, EM and immunisation; also called …
T1 chain: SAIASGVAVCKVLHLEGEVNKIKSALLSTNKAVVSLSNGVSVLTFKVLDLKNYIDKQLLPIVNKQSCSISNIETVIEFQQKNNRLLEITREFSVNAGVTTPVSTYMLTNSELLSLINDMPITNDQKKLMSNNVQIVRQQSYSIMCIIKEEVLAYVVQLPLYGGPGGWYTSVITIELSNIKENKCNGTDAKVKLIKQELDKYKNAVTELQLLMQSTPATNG
Described as above. Conditions: both partners purified.

Assay [5] addresses T2, head-only RSV F immunogen i-693 (Human respiratory syncytial virus A, …, S155C | S190F | V207L | S290C | S155C | S190F | V207L | S290C).
T2 construct: RSV fusion (F) glycoprotein, subtype A strain A2, F2 segment of domain III, first monomer; numbers count on: PDB entry 4JHW; linker between F2 and F1; RSV fusion (F) glycoprotein, subtype A strain A2, F1 segment, first monomer; linker between the two identical monomers; RSV fusion (F) glycoprotein, subtype A strain A2, F2 segment of domain III, second monomer; RSV fusion (F) glycoprotein, subtype …
T2 chain: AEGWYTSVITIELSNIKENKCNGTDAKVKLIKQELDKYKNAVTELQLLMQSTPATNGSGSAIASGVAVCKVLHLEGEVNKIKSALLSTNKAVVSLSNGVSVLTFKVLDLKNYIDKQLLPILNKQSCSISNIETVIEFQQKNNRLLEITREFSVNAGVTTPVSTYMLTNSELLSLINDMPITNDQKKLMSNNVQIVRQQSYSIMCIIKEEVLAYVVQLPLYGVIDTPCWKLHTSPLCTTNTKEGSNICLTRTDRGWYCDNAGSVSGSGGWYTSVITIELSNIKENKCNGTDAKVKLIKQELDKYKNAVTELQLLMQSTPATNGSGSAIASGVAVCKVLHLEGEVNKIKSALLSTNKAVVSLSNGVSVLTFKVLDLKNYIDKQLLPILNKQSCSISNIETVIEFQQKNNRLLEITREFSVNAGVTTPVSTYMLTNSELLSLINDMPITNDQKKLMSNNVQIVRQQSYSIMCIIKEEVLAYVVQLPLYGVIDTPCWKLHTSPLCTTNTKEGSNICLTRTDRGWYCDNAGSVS
The assay is described as above. The note with it: both partners purified.

Assay [6] deals with T3, head-only RSV F immunogen i-273 (Human respiratory syncytial virus A, …, S155C | S190F | V207L | S290C | L258K | L273K).
T3 construct: RSV fusion (F) glycoprotein, subtype A strain A2, F1 segment of domain III (head); numbers count on: PDB entry 4JHW; linker; RSV fusion (F) glycoprotein, subtype A strain A2, F2 segment of domain III (head); Circular permutant F1-GG-F2; A signal peptide for secretion was added; Tags are thrombin-cleavable: held by the His-tag in the kinetic BLI; said to be cleaved before SEC, EM and immunisation; …
T3 chain: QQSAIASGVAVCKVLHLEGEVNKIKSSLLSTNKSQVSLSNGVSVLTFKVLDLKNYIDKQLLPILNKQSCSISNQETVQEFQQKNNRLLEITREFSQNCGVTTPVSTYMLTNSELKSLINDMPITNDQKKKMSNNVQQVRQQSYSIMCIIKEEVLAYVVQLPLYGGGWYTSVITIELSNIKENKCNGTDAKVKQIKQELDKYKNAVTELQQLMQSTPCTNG
The assay is described as above. The note with it: both partners purified.

Assay [7] has as its target T4, head-only RSV F immunogen i-210 (Human respiratory syncytial virus A, …, S155C | S190F | V207L | S290C | L258K).
T4 construct: RSV fusion (F) glycoprotein, subtype A strain A2, F1 segment of domain III (head); numbers count on: PDB entry 4JHW; linker; RSV fusion (F) glycoprotein, subtype A strain A2, F2 segment of domain III (head); linker to the foldon; bacteriophage T4 foldon trimerization domain (of fibritin); Circular permutant F1-GGSGG-F2-GGSGGSG-foldon; A signal peptide for secretion was added; Tags are …
T4 chain: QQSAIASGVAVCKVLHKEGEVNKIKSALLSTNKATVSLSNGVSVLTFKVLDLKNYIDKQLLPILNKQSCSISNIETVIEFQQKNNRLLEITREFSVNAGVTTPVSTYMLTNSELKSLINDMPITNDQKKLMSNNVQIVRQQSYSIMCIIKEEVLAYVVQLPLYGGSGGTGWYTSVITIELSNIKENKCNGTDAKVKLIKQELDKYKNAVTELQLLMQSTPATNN
Described as above. The note with it: both partners purified.

For the molecule motavizumab Fab, the percent of particles with bound Fab in assay [1] is under 10%. For the same molecule, the figures for the Kd in assay [2] and in assay [3] were 1360 nM and 761 nM, respectively.

B1: motavizumab Fab (Fab, V domains shown)
VH: QVTLRESGPALVKPTQTLTLTCTFSGFSLSTAGMSVGWIRQPPGKALEWLADIWWDDKKHYNPSLKDRLTISKDTSKNQVVLKVTNMDPADTATYYCARDMIFNFYFDVWGQGTTVTVSS
VL: DIQMTQSPSTLSASVGDRVTITCSASSRVGYMHWYQQKPGKAPKLLIYDTSKLASGVPSRFSGSGSGTEFTLTISSLQPDDFATYYCFQGSGYPFTFGGGTKVEIK
notes: Antigenic site II-directed antibody; also called Fab motavizumab; source: HEK 293-F, co-transfected heavy and light chain plasmids; IgG on Protein A, digested with Lys-C or HRV3C protease, Fab purified by SEC
As to B1, the figures for the Kd in assay [4] and in assay [5] were 0.5 nM and 6.5 nM, respectively.

B2: D25 Fab (Fab, V domains shown)
VH: QVQLVQSGAEVKKPGSSVMVSCQASGGPLRNYIINWLRQAPGQGPEWMGGIIPVLGTVHYAPKFQGRVTITADESTDTAYIHLISLRSEDTAMYYCATETALVVSTTYLPHYFDNWGQGTLVTVSS
VL: DIQMTQSPSSLSAAVGDRVTITCQASQDIVNYLNWYQQKPGKAPKLLIYVASNLETGVPSRFSGSGSGTDFSLTISSLQPEDVATYYCQQYDNLPLTFGGGTKVEIK
notes: Antigenic site Ø-directed antibody; also called Fab D25; source: HEK 293-F, co-transfected heavy and light chain plasmids; IgG on Protein A, digested with Lys-C or HRV3C protease, Fab purified by SEC
In the case of B2, the Kd in assay [4] was 0.7 nM; in assay [6] it was 33.3 nM; in assay [7], 0.7 nM; in assay [5], 9.9 nM.
